{"source": "paper PMC3775802", "key": {"[1]": {"molecular_target": "T1, human alpha-thrombin (THR) (Homo sapiens) (UniProt P00734+P00734)", "test": "competition (SPRi, free thrombin quantification)", "conditions": "5' amino modifier C6 as ordered; 20 mM Tris-HCl pH 7.4, 1 mM MgCl2, 120 mM NaCl, 10 mM KCl; thrombin co-injected with 500 nM cytochrome c; binding temperature not stated"}, "[2]": {"molecular_target": "T1, human alpha-thrombin (THR) (Homo sapiens)", "test": "back-scattering interferometry", "conditions": "5' amino modifier C6 as ordered; 20 mM Tris-HCl pH 7.4, 1 mM MgCl2, 120 mM NaCl, 10 mM KCl; thrombin co-injected with 500 nM cytochrome c; binding temperature not stated; cited from earlier work"}}, "data": [{"sequence": "TTTTTTTTTTAGTCCGTGGTAGGGGAGGTTGGGGTGACT [APT (anti-thrombin aptamer), solution competitor]", "values": [{"measurement": "Kd", "setting": "[1]", "result": 3.16, "unit": "nM"}, {"measurement": "Kd", "setting": "[2]", "result": 3.84, "unit": "nM"}]}]}
